In patent publication US20250171562A1 (ALK ABELL, published 2025):

Target: T1, recombinant human IgE (human, UniProt P01854-1 1-428)
T1 construct: made in-house (ALK); preloaded on immobilised FcεRIα in the displacement ELISA
Test: IgE-FcεRIα displacement ELISA
In short: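 Streptavidin-coated plates carried site-specifically biotinylated recombinant human FcεRIα, loaded with recombinant human IgE at 13 ng/ml. sdAbs in a pM–μM series were added for 1 h, and displaced IgE was washed off. Percent displacement was the signal reduction versus the no-sdAb control, giving EC50 and maximal effect.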

T1 sequence (P01854 other isoform, or with tags, fused parts or gaps): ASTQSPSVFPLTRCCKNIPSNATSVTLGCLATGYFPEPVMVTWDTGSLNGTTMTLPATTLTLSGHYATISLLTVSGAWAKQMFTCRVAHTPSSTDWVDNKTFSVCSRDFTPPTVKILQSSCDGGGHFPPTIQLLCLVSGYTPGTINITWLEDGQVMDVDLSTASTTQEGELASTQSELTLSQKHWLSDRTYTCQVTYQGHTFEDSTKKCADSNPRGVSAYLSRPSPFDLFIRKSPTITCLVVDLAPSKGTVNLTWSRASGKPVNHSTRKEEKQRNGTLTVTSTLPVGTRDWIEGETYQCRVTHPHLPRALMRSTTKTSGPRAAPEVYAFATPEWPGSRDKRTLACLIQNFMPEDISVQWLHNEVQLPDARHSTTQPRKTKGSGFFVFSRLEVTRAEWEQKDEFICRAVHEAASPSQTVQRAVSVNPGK

Row | Binder | Max effect [%] | EC50 [nM]
1 | CIgG4F6A1(G4S)1 (Fc fusion) chain 1: GPPCPPCPAPEFLGGPSVFLFPPKPKDTLMISRTPEVTCVVVDVSQEDPEVQFNWYVDGVEVHNAKTKPREEQFNSTYRVVSVLTVLHQDWLNGKEYKCKVSNKGLPSSIEKTISKAKGQPREPQVYTLPPCQEEMTKNQVSLWCLVKGFYPSDIAVEWESNGQPENNYKTTPPVLDSDGSFFLYSRLTVDKSRWQEGNVFSCSVMHEALHNHYTQKSLSLSLGKGGGGSDVQLQESGGGLVQAGGSLRLSCAASGLTFGSYDMGWYRQAPGKQRELVGRIRNDGITYYADSVKGRFTMSRDNAKNTVYLQMNSLKPEDTAVYYCAADGTGLGHYDYWGQGTQVTVS chain 2: GPPCPPCPAPEFLGGPSVFLFPPKPKDTLMISRTPEVTCVVVDVSQEDPEVQFNWYVDGVEVHNAKTKPREEQFNSTYRVVSVLTVLHQDWLNGKEYKCKVSNKGLPSSIEKTISKAKGQPREPQVCTLPPSQEEMTKNQVSLSCAVKGFYPSDIAVEWESNGQPENNYKTTPPVLDSDGSFFLVSRLTVDKSRWQEGNVFSCSVMHEALHNHYTQKSLSLSLGKGGGGSEVQLLESGGGLVQPGGSLRLSCAASGFTFGNYDMAWVRQAPGKRPEWVSSIDTGGDITHYADSVKGRFTISRDNAKNTLYLQMNSLRPEDTAVYWCATDEEYALGPNEFDYYGQGTLVTVSS | 25 | 
2 | CIgG4A1B1(G4S)1 (Fc fusion, B1 on the hole (437), A1 on the knob (106)) chain 1: GPPCPPCPAPEFLGGPSVFLFPPKPKDTLMISRTPEVTCVVVDVSQEDPEVQFNWYVDGVEVHNAKTKPREEQFNSTYRVVSVLTVLHQDWLNGKEYKCKVSNKGLPSSIEKTISKAKGQPREPQVCTLPPSQEEMTKNQVSLSCAVKGFYPSDIAVEWESNGQPENNYKTTPPVLDSDGSFFLVSRLTVDKSRWQEGNVFSCSVMHEALHNHYTQKSLSLSLGKGGGGSQVQLQESGGGLVQTGGSLRLSCAVHGRTFSNTGMGWFRQAPGNERQFVAIISPSGTSTYYADSVKGRFTISRDPAKNTVYLQMNSLKMDDTAVYYCAASYGSNWSTLRHQRRNEYDAWGQGTQVAVS chain 2: GPPCPPCPAPEFLGGPSVFLFPPKPKDTLMISRTPEVTCVVVDVSQEDPEVQFNWYVDGVEVHNAKTKPREEQFNSTYRVVSVLTVLHQDWLNGKEYKCKVSNKGLPSSIEKTISKAKGQPREPQVYTLPPCQEEMTKNQVSLWCLVKGFYPSDIAVEWESNGQPENNYKTTPPVLDSDGSFFLYSRLTVDKSRWQEGNVFSCSVMHEALHNHYTQKSLSLSLGKGGGGSEVQLLESGGGLVQPGGSLRLSCAASGFTFGNYDMAWVRQAPGKRPEWVSSIDTGGDITHYADSVKGRFTISRDNAKNTLYLQMNSLRPEDTAVYWCATDEEYALGPNEFDYYGQGTLVTVSS | > 95 | 2.9
3 | CIgG4B1A1(G2S) (Fc fusion) chain 1: GPPCPPCPAPEFLGGPSVFLFPPKPKDTLMISRTPEVTCVVVDVSQEDPEVQFNWYVDGVEVHNAKTKPREEQFNSTYRVVSVLTVLHQDWLNGKEYKCKVSNKGLPSSIEKTISKAKGQPREPQVYTLPPCQEEMTKNQVSLWCLVKGFYPSDIAVEWESNGQPENNYKTTPPVLDSDGSFFLYSRLTVDKSRWQEGNVFSCSVMHEALHNHYTQKSLSLSLGKGGSQVQLQESGGGLVQTGGSLRLSCAVHGRTFSNTGMGWFRQAPGNERQFVAIISPSGTSTYYADSVKGRFTISRDPAKNTVYLQMNSLKMDDTAVYYCAASYGSNWSTLRHQRRNEYDAWGQGTQVAVS chain 2: GPPCPPCPAPEFLGGPSVFLFPPKPKDTLMISRTPEVTCVVVDVSQEDPEVQFNWYVDGVEVHNAKTKPREEQFNSTYRVVSVLTVLHQDWLNGKEYKCKVSNKGLPSSIEKTISKAKGQPREPQVCTLPPSQEEMTKNQVSLSCAVKGFYPSDIAVEWESNGQPENNYKTTPPVLDSDGSFFLVSRLTVDKSRWQEGNVFSCSVMHEALHNHYTQKSLSLSLGKGGSEVQLLESGGGLVQPGGSLRLSCAASGFTFGNYDMAWVRQAPGKRPEWVSSIDTGGDITHYADSVKGRFTISRDNAKNTLYLQMNSLRPEDTAVYWCATDEEYALGPNEFDYYGQGTLVTVSS | > 95 | 3.4
4 | CIgG4F6A1(G4S)2 (Fc fusion) chain 1: GPPCPPCPAPEFLGGPSVFLFPPKPKDTLMISRTPEVTCVVVDVSQEDPEVQFNWYVDGVEVHNAKTKPREEQFNSTYRVVSVLTVLHQDWLNGKEYKCKVSNKGLPSSIEKTISKAKGQPREPQVYTLPPCQEEMTKNQVSLWCLVKGFYPSDIAVEWESNGQPENNYKTTPPVLDSDGSFFLYSRLTVDKSRWQEGNVFSCSVMHEALHNHYTQKSLSLSLGKGGGGSGGGGSDVQLQESGGGLVQAGGSLRLSCAASGLTFGSYDMGWYRQAPGKQRELVGRIRNDGITYYADSVKGRFTMSRDNAKNTVYLQMNSLKPEDTAVYYCAADGTGLGHYDYWGQGTQVTVS chain 2: GPPCPPCPAPEFLGGPSVFLFPPKPKDTLMISRTPEVTCVVVDVSQEDPEVQFNWYVDGVEVHNAKTKPREEQFNSTYRVVSVLTVLHQDWLNGKEYKCKVSNKGLPSSIEKTISKAKGQPREPQVCTLPPSQEEMTKNQVSLSCAVKGFYPSDIAVEWESNGQPENNYKTTPPVLDSDGSFFLVSRLTVDKSRWQEGNVFSCSVMHEALHNHYTQKSLSLSLGKGGGGSGGGGSEVQLLESGGGLVQPGGSLRLSCAASGFTFGNYDMAWVRQAPGKRPEWVSSIDTGGDITHYADSVKGRFTISRDNAKNTLYLQMNSLRPEDTAVYWCATDEEYALGPNEFDYYGQGTLVTVSS | 75 | 8
5 | CIgG4F6A1(G4S)3 (Fc fusion) chain 1: GPPCPPCPAPEFLGGPSVFLFPPKPKDTLMISRTPEVTCVVVDVSQEDPEVQFNWYVDGVEVHNAKTKPREEQFNSTYRVVSVLTVLHQDWLNGKEYKCKVSNKGLPSSIEKTISKAKGQPREPQVYTLPPCQEEMTKNQVSLWCLVKGFYPSDIAVEWESNGQPENNYKTTPPVLDSDGSFFLYSRLTVDKSRWQEGNVFSCSVMHEALHNHYTQKSLSLSLGKGGGGSGGGGSGGGGSDVQLQESGGGLVQAGGSLRLSCAASGLTFGSYDMGWYRQAPGKQRELVGRIRNDGITYYADSVKGRFTMSRDNAKNTVYLQMNSLKPEDTAVYYCAADGTGLGHYDYWGQGTQVTVS chain 2: GPPCPPCPAPEFLGGPSVFLFPPKPKDTLMISRTPEVTCVVVDVSQEDPEVQFNWYVDGVEVHNAKTKPREEQFNSTYRVVSVLTVLHQDWLNGKEYKCKVSNKGLPSSIEKTISKAKGQPREPQVCTLPPSQEEMTKNQVSLSCAVKGFYPSDIAVEWESNGQPENNYKTTPPVLDSDGSFFLVSRLTVDKSRWQEGNVFSCSVMHEALHNHYTQKSLSLSLGKGGGGSGGGGSGGGGSEVQLLESGGGLVQPGGSLRLSCAASGFTFGNYDMAWVRQAPGKRPEWVSSIDTGGDITHYADSVKGRFTISRDNAKNTLYLQMNSLRPEDTAVYWCATDEEYALGPNEFDYYGQGTLVTVSS | 90 | 3.3

Now from value to binder:

Row | Max effect [%] | EC50 [nM] | Binder
6 | > 95 | 3.1 | CIgG4B1A1(G3S) (Fc fusion) chain 1: GPPCPPCPAPEFLGGPSVFLFPPKPKDTLMISRTPEVTCVVVDVSQEDPEVQFNWYVDGVEVHNAKTKPREEQFNSTYRVVSVLTVLHQDWLNGKEYKCKVSNKGLPSSIEKTISKAKGQPREPQVYTLPPCQEEMTKNQVSLWCLVKGFYPSDIAVEWESNGQPENNYKTTPPVLDSDGSFFLYSRLTVDKSRWQEGNVFSCSVMHEALHNHYTQKSLSLSLGKGGGSQVQLQESGGGLVQTGGSLRLSCAVHGRTFSNTGMGWFRQAPGNERQFVAIISPSGTSTYYADSVKGRFTISRDPAKNTVYLQMNSLKMDDTAVYYCAASYGSNWSTLRHQRRNEYDAWGQGTQVAVS chain 2: GPPCPPCPAPEFLGGPSVFLFPPKPKDTLMISRTPEVTCVVVDVSQEDPEVQFNWYVDGVEVHNAKTKPREEQFNSTYRVVSVLTVLHQDWLNGKEYKCKVSNKGLPSSIEKTISKAKGQPREPQVCTLPPSQEEMTKNQVSLSCAVKGFYPSDIAVEWESNGQPENNYKTTPPVLDSDGSFFLVSRLTVDKSRWQEGNVFSCSVMHEALHNHYTQKSLSLSLGKGGGSEVQLLESGGGLVQPGGSLRLSCAASGFTFGNYDMAWVRQAPGKRPEWVSSIDTGGDITHYADSVKGRFTISRDNAKNTLYLQMNSLRPEDTAVYWCATDEEYALGPNEFDYYGQGTLVTVSS
7 | 90 | 14 | CIgG4B1A1(no linker) (Fc fusion) chain 1: GPPCPPCPAPEFLGGPSVFLFPPKPKDTLMISRTPEVTCVVVDVSQEDPEVQFNWYVDGVEVHNAKTKPREEQFNSTYRVVSVLTVLHQDWLNGKEYKCKVSNKGLPSSIEKTISKAKGQPREPQVYTLPPCQEEMTKNQVSLWCLVKGFYPSDIAVEWESNGQPENNYKTTPPVLDSDGSFFLYSRLTVDKSRWQEGNVFSCSVMHEALHNHYTQKSLSLSLGKQVQLQESGGGLVQTGGSLRLSCAVHGRTFSNTGMGWFRQAPGNERQFVAIISPSGTSTYYADSVKGRFTISRDPAKNTVYLQMNSLKMDDTAVYYCAASYGSNWSTLRHQRRNEYDAWGQGTQVAVS chain 2: GPPCPPCPAPEFLGGPSVFLFPPKPKDTLMISRTPEVTCVVVDVSQEDPEVQFNWYVDGVEVHNAKTKPREEQFNSTYRVVSVLTVLHQDWLNGKEYKCKVSNKGLPSSIEKTISKAKGQPREPQVCTLPPSQEEMTKNQVSLSCAVKGFYPSDIAVEWESNGQPENNYKTTPPVLDSDGSFFLVSRLTVDKSRWQEGNVFSCSVMHEALHNHYTQKSLSLSLGKEVQLLESGGGLVQPGGSLRLSCAASGFTFGNYDMAWVRQAPGKRPEWVSSIDTGGDITHYADSVKGRFTISRDNAKNTLYLQMNSLRPEDTAVYWCATDEEYALGPNEFDYYGQGTLVTVSS
8 | > 95 | 9.1 | CIgG4B1A1(GS) (Fc fusion) chain 1: GPPCPPCPAPEFLGGPSVFLFPPKPKDTLMISRTPEVTCVVVDVSQEDPEVQFNWYVDGVEVHNAKTKPREEQFNSTYRVVSVLTVLHQDWLNGKEYKCKVSNKGLPSSIEKTISKAKGQPREPQVYTLPPCQEEMTKNQVSLWCLVKGFYPSDIAVEWESNGQPENNYKTTPPVLDSDGSFFLYSRLTVDKSRWQEGNVFSCSVMHEALHNHYTQKSLSLSLGKGSQVQLQESGGGLVQTGGSLRLSCAVHGRTFSNTGMGWFRQAPGNERQFVAIISPSGTSTYYADSVKGRFTISRDPAKNTVYLQMNSLKMDDTAVYYCAASYGSNWSTLRHQRRNEYDAWGQGTQVAVS chain 2: GPPCPPCPAPEFLGGPSVFLFPPKPKDTLMISRTPEVTCVVVDVSQEDPEVQFNWYVDGVEVHNAKTKPREEQFNSTYRVVSVLTVLHQDWLNGKEYKCKVSNKGLPSSIEKTISKAKGQPREPQVCTLPPSQEEMTKNQVSLSCAVKGFYPSDIAVEWESNGQPENNYKTTPPVLDSDGSFFLVSRLTVDKSRWQEGNVFSCSVMHEALHNHYTQKSLSLSLGKGSEVQLLESGGGLVQPGGSLRLSCAASGFTFGNYDMAWVRQAPGKRPEWVSSIDTGGDITHYADSVKGRFTISRDNAKNTLYLQMNSLRPEDTAVYWCATDEEYALGPNEFDYYGQGTLVTVSS
